Data from patent publication US20190201500A1 (ONL THERAPEUTICS, published 2019).
No end group written: not given here.

Target: T1, Fas receptor on 661W photoreceptor cells (UniProt P25446 22-327, limits assumed)
T1 sequence (looked up): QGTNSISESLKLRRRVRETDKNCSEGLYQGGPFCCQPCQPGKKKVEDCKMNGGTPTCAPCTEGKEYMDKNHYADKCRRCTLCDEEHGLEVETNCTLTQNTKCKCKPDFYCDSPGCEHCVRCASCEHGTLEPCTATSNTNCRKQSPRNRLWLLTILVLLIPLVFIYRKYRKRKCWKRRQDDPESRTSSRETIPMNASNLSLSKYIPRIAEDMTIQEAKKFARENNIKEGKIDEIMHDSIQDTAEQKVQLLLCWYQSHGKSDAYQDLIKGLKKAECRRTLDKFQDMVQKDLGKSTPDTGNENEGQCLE
Assay: cell-based or functional assay

Molecule | caspase 8 activity in 661W cell lysates (dose of peak activity) [ng/mL] | increase of caspase 8 activity in 661W cells [%] | EC50, inhibition of FasL-induced caspase 8 activation in 661W cells [nM] | fold potency against Met-12 by IC50 determination [fold] | fold potency against Met-12 by the concentration of maximal inhibition [fold]
human recombinant FasL (from UniProt P48023 134-281) (ligand) | 500 | 20 to 30 |  |  | 
HHIYLGAVNYIY-NH2 (also: trihydrochloride salt) [Compound 1 (His-His-Ile-Tyr-Leu-Gly-Ala-Val-Asn-Tyr-Ile-Tyr-NH2), C-terminal amide of Met-12] |  |  | 400 | 10 | ~3
HHIYLGAVNYIY (also: trihydrochloride salt) [Met-12 (HHIYLGAVNYIY)] |  |  | 4000 |  | 
